Data on 167 variants can be found in the RNAGym collection of RNA variant scans (doi:10.7554/elife.90254).

To fix the notation:
B1: OR4K15 (parent)
chain: GUUAACGGUCAUAGGCCAUGGAAACUAGGAGCACCAUUUCGCUGCCAGUGAAGAAAUGAACAAAGAAAAUCUGGGCCAGGCAGGCAUCAAAAGAAAUAGUCUUGCGCUCAACCAGAAAGUCUGUAAUCAUUUUAAGGGUA

The variants in this data set derive from B1. In words: self-cleavage, relative activity (ratio to wild type); higher = more cleavage; in vitro, sequencing; the parent is a self-cleaving ribozyme.
As to G14A A59G, the self-cleavage was 1.27.
In the case of U103A U120C, the self-cleavage is 0.34.
The result for A68G A125G reads 0.48; that for U87C A129U, 0.73; that for G48A A51G, 2.22.
Then C42U U108A, with 0.
Then A33G U100C, with 2.23; and G7U A116U, with 0.38.
G136U: the self-cleavage amounted to 1.07.
Then A118U A126G, with 0.17.
Then U38C A94G, with 0.74.
Consider U97A C101U, for which the self-cleavage was 0.49.
The result for A90U G99A reads 0.52; that for A22G A110U, 0.8.
As to A22G A110G, the self-cleavage stood at 0.08.
Consider A60U A63G, for which the self-cleavage worked out at 0.71.
Then U108C A117U, with 0.01; and U49C U130A, with 0.28; and G15A U139C, with 1.3.
Then A62G G106U, with 0.01; and U19A A91G, with 1.06; and C16A A55G, with 0.37.
Then A60G U102C, with 1.4; and A116U, with 0.23; and A23G A91C, with 1.49.
Consider C46G, for which the self-cleavage was 1.46.
The result for U38A U120C reads 1.12; that for A92U G104A, 0.01; that for A98G U132A, 0.41.
The result for G7A U37C reads 2.58; that for U38C G99C, 0.34; that for A78G U100C, 0.31.
Then A51C U127A, with 2.59; and A78G U97A, with 0.27.
Turning to A92G U108G, the self-cleavage was found to be 0.02.
For A98U, the self-cleavage is 2.22.
Take A94G U131A: the self-cleavage came out at 0.74.
Then A62C U87A, with 1.54.
The result for U19C A86U reads 1.8; that for A33G A89G, 0.84; that for U26C U102C, 1.65.
In the case of A5G A67C, the self-cleavage came out at 0.63.
For A59G U120A, the self-cleavage turned out to be 1.23.
Then U3G U9A, with 0.99; and C112U A116G, with 0.
The result for A23G A125G reads 0.4.
Then A82C C109U, with 0.07; and U19C C61U, with 1.56; and C76U U87C, with 0.17.
Turning to U127C U133A, the self-cleavage turned out to be 1.7.
Then A82U C101U, with 0.04; and U43A A59G, with 1.52; and A95G U122A, with 1.78.
The result for A67U A129U reads 1.14.
Then U103A U131C, with 0.45.
Take U2C A30U: the self-cleavage was found to be 0.98.
Then A69G U139A, with 1.69.
The result for A24U A82G reads 0.41.
Then G7A A68G, with 1.92; and A68G G99A, with 0.57; and G79C A91G, with 0.09.
In the case of A13U A114G, the self-cleavage stood at 0.09.
Then C35U A62G, with 0.56; and U3C A54C, with 0.51.
The result for A59C A68G reads 2.1; that for U2C A94G, 1.08; that for A90U A94G, 1.48.
Then A68U A134G, with 1.78; and U2C G48U, with 0.43; and A23G A30U, with 0.82.
Take A5U G21A: the self-cleavage is 1.25.
Then A18U A111G, with 0.03; and A18U A111U, with 0.12; and A51G G138C, with 1.66.
Then A30G U72C, with 0.24; and A54U A63G, with 1.93; and A5C A56G, with 1.05.
The result for A36G A111G reads 0.03.
Regarding A5G A94G, the self-cleavage is 1.
For the variant C35U A118G, the self-cleavage is 0.99.
Then A114G A135U, with 0.15; and A5U U102C, with 1.69; and A30U A129G, with 1.24.
Then A62G U124G, with 1.13; and A36U U127C, with 0.93.
Then A4G A13G, with 1.27.
As to U39C U97A, the self-cleavage came out at 1.16.
Then A68C A82U, with 0.23.
Regarding U43A A126U, the self-cleavage worked out at 1.41.
With A62G G75C, the self-cleavage was found to be 0.18.
As to A27G A90U, the self-cleavage was found to be 1.
Then U39C A89C, with 1.38; and C35U A111G, with 0.05; and A68U G75C, with 0.22.
The result for U12C U49C reads 0.44.
The result for A64G U103A reads 0.55.
With G50A U133C, the self-cleavage is 1.88.
For U9C A60G, the self-cleavage was found to be 1.41.
The result for U57C U100C reads 1.83; that for A82U U100C, 0.5.
The result for A5U U43G reads 1.19; that for A11G C121A, 1.62.
The result for U2C C10A reads 1.94; that for G8A U103C, 1.61.
Take U49A A111G: the self-cleavage was determined as 0.01.
The result for C34U A117G reads 1.91; that for U3A G74A, 0.39.
Then A60U A118G, with 1.58; and A82G, with 0.4; and A47C A129G, with 0.74.
The result for A36U A54G reads 1.02; that for U9C A63U, 1.83; that for G75A A78U, 0.09.
For A94G A110G, the self-cleavage turned out to be 0.13.
Consider A30G A56G, for which the self-cleavage came to 1.27.
The result for C17U G74A reads 0.13; that for A22U A54G, 1.46.
As for U9A, the self-cleavage was found to be 1.01.
For the variant G74A A94C, the self-cleavage amounted to 0.06.
For the variant A94U U108C, the self-cleavage was found to be 0.02.
The result for C25U A110U reads 0.57.
Then G8U, with 1.49.
Then A22G C81U, with 0.53; and A13G A24G, with 1.05; and A56C U133A, with 1.4.
For A47G A68G, the self-cleavage stood at 1.23.
With U2C A36U, the self-cleavage was 1.11.
The result for A68U A114U reads 0.06; that for A64G A86G, 1.15; that for G7A A117G, 0.51.
The result for U12C U132A reads 0.67.
As for U26G A63G, the self-cleavage worked out at 2.09.
Take U72A C101A: the self-cleavage amounted to 0.04.
For A30G U49G, the self-cleavage worked out at 1.48.
The result for A67U A110G reads 0.25; that for U57A A69G, 0.95; that for U9C C77U, 1.18.
For the variant A114C U127C, the self-cleavage stood at 0.
On to A23G U120G, for which the self-cleavage was determined as 1.48.
On to A51G, for which the self-cleavage is 1.36.
As for G14U A90G, the self-cleavage is 1.34.
Then A51G C76A, with 0.07; and C45A G99A, with 0.92; and A55G A117G, with 0.76.
Then A52G U130A, with 1.08; and U2C A18U, with 0.37; and U108G A116G, with 0.
The result for U102C A129U reads 1.23; that for U97A U108C, 0.01; that for U87C A111C, 0.02.
On to G44A A47G, for which the self-cleavage stood at 1.27.
Then A52G C112U, with 0.01; and U97C U127A, with 0.81.
Consider A33G A69G, for which the self-cleavage came to 0.28.
The result for A51G A86C reads 0.65; that for A36G G136U, 1.95; that for A62C A125G, 0.58.
Then G20A U102A, with 0.58; and U26A A96G, with 1.39.
Then G99A A134G, with 0.6.
Turning to A23G C101U, the self-cleavage came out at 0.35.
The result for A5G A54G reads 1.04; that for U103C G104U, 0.03; that for U100A C105U, 0.03.
Then A36G A82G, with 0.53.
A64G G138A: the self-cleavage is 1.9.
The result for G29U A59G reads 1.31.
